Results published in patent US20200338209A1, “ANTI-B7-H3 ANTIBODIES AND ANTIBODY DRUG CONJUGATES” (AbbVie Inc., priority 2016, published 2020).
Numbering of substitutions follows the chain as printed. One block for each molecule: values may come before it.

Experiments:
cyno B7-H3 = test: Biacore T200 SPR binding kinetics, mAb capture, soluble ECD of cyno B7-H3; set-up: species or system cynomolgus monkey; conditions: 1:1 binding model
Experimental: [The source words this procedure for another species and reports this species under the same test.] (§1) The binding affinity of the purified anti-B7-H3 monoclonal antibodies was determined by surface […]. […] The binding kinetics were derived from SPR measurements using a Biacore T200 instrument and a mAb capture approach (as described in the materials and methods below).
(§2) Biacore T200 SPR instruments were used to measure the binding kinetics of human B7-H3 (4Ig-B7-H3 variant) (analyte) binding to various mAbs (ligands). The assay format was Fc-based capture via immobilized anti-mouse (Fc) (Pierce 31170) or immobilized anti-human (Fc) (Pierce 31125). A standard amine coupling protocol was employed to immobilize the capture reagents via primary amines to the carboxy-methyl (CM) dextran surface of CM5 sensorchips (Biacore); capture antibodies were coupled to a level of approximately 5000RU. For binding kinetic measurements the assay buffer was HBS-EP+ (Biacore): 10 mM Hepes, pH7.4, 150 mM NaCl, 3 mM EDTA, 0.05% polysorbate 20. During the assay, all measurements were referenced against the capture surface alone. Each assay cycle consisted of the following steps: 1) Capture of ligand to approximately 50RU; 2) Analyte injection over both reference and test surface, 240 μL at 80 μL/min, after which the dissociation was monitored for 900 seconds at 80 μL/min; 3) Regeneration of capture surface with low pH glycine. For kinetic determinations analyte injections were 3-point, 9-fold dilution series of 900 nM, 100 nM and 11.11 nM, buffer only injections were included for secondary referencing. Data were processed and fit to a 1:1 binding model using Biacore T200 Evaluation Software to determine the binding kinetic rate constants, ka (on-rate) and kd (off-rate), and the equilibrium dissociation constant (affinity, KD).

[1] = molecular target: T1, human B7-H3 (4Ig-B7-H3 variant) (Homo sapiens, UniProt Q5ZPR3); test: Biacore T200 SPR binding kinetics, mAb capture, soluble ECD of human B7-H3; conditions: 1:1 binding model
T1 construct: His tag (6xHis) (C)
T1 sequence (Q5ZPR3 with tags, fused parts or gaps): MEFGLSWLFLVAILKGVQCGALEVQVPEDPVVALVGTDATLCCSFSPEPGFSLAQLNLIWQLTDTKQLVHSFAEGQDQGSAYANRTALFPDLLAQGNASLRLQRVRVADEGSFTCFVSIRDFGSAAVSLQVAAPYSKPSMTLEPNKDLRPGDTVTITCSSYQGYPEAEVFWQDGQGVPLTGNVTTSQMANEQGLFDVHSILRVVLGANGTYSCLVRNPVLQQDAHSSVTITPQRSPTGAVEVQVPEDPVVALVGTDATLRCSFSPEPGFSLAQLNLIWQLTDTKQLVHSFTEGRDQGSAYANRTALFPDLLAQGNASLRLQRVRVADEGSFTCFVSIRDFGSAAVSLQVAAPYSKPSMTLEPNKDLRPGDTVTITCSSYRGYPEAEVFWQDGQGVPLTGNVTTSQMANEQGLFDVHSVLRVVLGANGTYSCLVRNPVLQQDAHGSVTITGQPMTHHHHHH
Experimental: as §1, §2

Chain of cyno B7-H3 (as listed by the source): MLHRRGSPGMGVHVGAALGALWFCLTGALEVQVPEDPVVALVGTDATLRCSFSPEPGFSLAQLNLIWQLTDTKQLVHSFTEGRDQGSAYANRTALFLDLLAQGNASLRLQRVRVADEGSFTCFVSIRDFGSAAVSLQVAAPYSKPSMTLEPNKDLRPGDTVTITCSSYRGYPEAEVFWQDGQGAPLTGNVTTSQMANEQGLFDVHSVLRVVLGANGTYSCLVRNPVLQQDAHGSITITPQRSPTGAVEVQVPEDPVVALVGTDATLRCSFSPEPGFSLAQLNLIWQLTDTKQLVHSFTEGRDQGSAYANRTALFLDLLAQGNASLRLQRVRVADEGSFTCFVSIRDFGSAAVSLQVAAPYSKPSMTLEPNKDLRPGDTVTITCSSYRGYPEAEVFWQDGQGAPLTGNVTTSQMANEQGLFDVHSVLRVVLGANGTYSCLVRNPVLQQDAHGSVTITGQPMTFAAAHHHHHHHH

B1: Ab10: mouse hybridoma derived anti-B7-H3 monoclonal antibodies (mAbs) (antibody, V domains shown)
VH: DVQLQESGPGLVKPSQSLSLTCTVTGYSITSDYAWNWIRQFPGNRLEWMGHINYSGITNYNPSLKSRISITRDTSKNQFFLQLYSVTTEDTATYFCARRSLFYYYGSSLYAMDYWGQGTSVTVSS
VL: DVVMTQSPFSLPVSLGDQASISCRSSQSLVHSNGNTYLHWYLQKPGQSPKLLIYKVSNRFSGVPDRFSGSGSGTDFTLKISRVEAEDLGVYFCSQSTHVPWTFGGGTKLEIK
ka (1/Ms) cynoB7-H3 (cyno B7-H3): 200000 M⁻¹ s⁻¹ | kd (1/s) cynoB7-H3 (cyno B7-H3): 0.0042 s⁻¹ | ka (1/Ms) huB7-H3 [1]: 41000 M⁻¹ s⁻¹ | kd (1/s) huB7-H3 [1]: 0.00019 s⁻¹

B2: Ab2: mouse hybridoma derived anti-B7-H3 monoclonal antibodies (mAbs) (antibody, V domains shown)
VH: QVQLQQPGAELVKPGASVKLSCKASGYTFTSYWMHWVKQRPGQGLEWIGMIHPDSGTTNYNEKFRSKATLTVDKSSSTAYMQLSSLTSEDSAVYYCAVYYGSTYWYFDVWGTGTTVTVSS
VL: B1 VL with S7T, F9L, S20Y, S32I, L42R, V99F, W101F, G105S
ka (1/Ms) cynoB7-H3 (cyno B7-H3): 230000 M⁻¹ s⁻¹ | kd (1/s) cynoB7-H3 (cyno B7-H3): 0.011 s⁻¹ | ka (1/Ms) huB7-H3 [1]: 120000 M⁻¹ s⁻¹ | kd (1/s) huB7-H3 [1]: 0.0029 s⁻¹

B3: Ab3: murine anti-B7-H3 mAbs; mouse hybridoma derived (antibody, V domains shown)
VH: QVQLQQPGAELVKPGASVKLSCKASGYTFSSYWMHWVKQRPGQGLEWIGLIHPDSGSTNYNEMFKNKATLTVDRSSSTAYVQLSSLTSEDSAVYFCAGGGRLYFDYWGQGTTLTVSS
VL: B1 VL with S7T, F9L, N35D, H39R, S81T, W101Y
ka (1/Ms) cynoB7-H3 (cyno B7-H3): 380000 M⁻¹ s⁻¹ | kd (1/s) cynoB7-H3 (cyno B7-H3): 0.01 s⁻¹ | ka (1/Ms) huB7-H3 [1]: 520000 M⁻¹ s⁻¹ | kd (1/s) huB7-H3 [1]: 0.01 s⁻¹

B4: Ab8: murine anti-B7-H3 mAbs; mouse hybridoma derived (antibody, V domains shown)
VH: EVKLVESGGGLVKPGGSLKLSCAASGFTFSSYGMSWVRQTPEKRLEWVATISGGGNYTYCPDSVKGRFTISRDNAKNNLYLQMSSLRSEDTALYYCTRQRGYDYHYAMDFWGQGTSVTVSS
VL: DIQMTQSPASLSVSVGETVTITCRASENIYSNLAWHQQKQGKSPQLLVYAATNLADGVPSRFSGNGSDTQYSLKINSLQSEDFGSYFCQNFWGTSWTFGGGTKLEIK
ka (1/Ms) cynoB7-H3 (cyno B7-H3): 160000 M⁻¹ s⁻¹ | kd (1/s) cynoB7-H3 (cyno B7-H3): 0.00026 s⁻¹ | ka (1/Ms) huB7-H3 [1]: 58000 M⁻¹ s⁻¹ | kd (1/s) huB7-H3 [1]: 9.9e-05 s⁻¹

B5: Ab5: murine anti-B7-H3 mAbs; mouse hybridoma derived (antibody, V domains shown)
VH: QVQLQQPGDELVKPGASVKLSCKTSGYTFTTDWMHWVKQRPGQGLEWIGMIHPNSGTTNYNEKFKSKAALTVDKSSSTACMQLSSLTSEDSAVYYCARSYWKWYFDVWGTGTTVTVSS
VL: QIVLTQSPAIMSASLGEEITLTCSASSSVSYMHWYQQKSGTSPKLLIYSTSNLASGVPSRFSGSGSGTFYSLTISSVEAEDSADYYCHQWTSYMYTFGGGTKLEIK
ka (1/Ms) cynoB7-H3 (cyno B7-H3): 1.4e+06 M⁻¹ s⁻¹ | kd (1/s) cynoB7-H3 (cyno B7-H3): 0.28 s⁻¹ | ka (1/Ms) huB7-H3 [1]: 1.3e+06 M⁻¹ s⁻¹ | kd (1/s) huB7-H3 [1]: 0.012 s⁻¹

B6: Ab4: murine anti-B7-H3 mAbs; mouse hybridoma derived (antibody, V domains shown)
VH: QVQLQQPGAELVKPGASVKLSCKASGYSFTSYWMHWVKQRPGQGLEWIGMIHPNSGSNNYNEKFKSKATLTVDKSSNTAYMQLSSLTSEDSAVYYCARRLGLHFDYWGQGTTLTVSS
VL: DIVMTQSQKFMSTPVGDRVSITCKASQNVGTAVAWYQQKPGQSPKLLIYSASNRYTGVPDRFTGSGSGTDFTLTISNMQSEDLADYFCQQYSSYPYTFGGGTKLEIK
ka (1/Ms) cynoB7-H3 (cyno B7-H3): 540000 M⁻¹ s⁻¹ | kd (1/s) cynoB7-H3 (cyno B7-H3): 0.00096 s⁻¹ | ka (1/Ms) huB7-H3 [1]: 690000 M⁻¹ s⁻¹ | kd (1/s) huB7-H3 [1]: 0.0011 s⁻¹

B11: Ab11: murine anti-B7-H3 mAbs; mouse hybridoma derived (antibody, V domains shown)
VH: EVKLVESGGGLVQPGGSLRLSCATSGFTFTNYYMSWVRQPPGKALEWLGFIRNKANDYTTEYSASVKGRFTISRDNSQSILYLQMNTLRAEDSATYYCARESPGNPFAYWGQGTLVTVSA
VL: DIVMTQSPSSLTVTAGEKVTMTCKSSQSLLNSGTQKNFLTWYQQKPGQPPKLLIYWASTRESGVPDRFTGSGSGTDFTLTISSVQAEDLAVYFCQNDYIYPLTFGAGTKLELK
ka (1/Ms) cynoB7-H3 (cyno B7-H3): 27000 M⁻¹ s⁻¹ | kd (1/s) cynoB7-H3 (cyno B7-H3): 7.2e-05 s⁻¹ | ka (1/Ms) huB7-H3 [1]: 20000 M⁻¹ s⁻¹ | kd (1/s) huB7-H3 [1]: 0.00089 s⁻¹

Continued, values first:

ka (1/Ms) cynoB7-H3 (cyno B7-H3): 750000 M⁻¹ s⁻¹ | kd (1/s) cynoB7-H3 (cyno B7-H3): 0.0056 s⁻¹ | ka (1/Ms) huB7-H3 [1]: 140000 M⁻¹ s⁻¹ | kd (1/s) huB7-H3 [1]: 0.0032 s⁻¹
B7: Ab16: mouse hybridoma derived anti-B7-H3 monoclonal antibodies (mAbs) (antibody, V domains shown)
VH: EVKLLESGGGLVQPGGSLKLSCAASGFDFSRYWMSWVRQAPGKGLEWIGEINPDSSTINYTPSLKDKFIISRDNAKNTLYLQMSKVRSEDTALYYCARPGFGNYIYAMDYWGQGTSVTVSS
VL: DIQMTQTTSSLSASLGDRVTINCRASQDISNFLNWYQQKPDGTVKLLIYYTSRLYLGVPSRFSGSGSGTDYSLTISNLEQEDIATYFCQQGNTLPPTFGGGTKLEIK

ka (1/Ms) cynoB7-H3 (cyno B7-H3): 55000 M⁻¹ s⁻¹ | kd (1/s) cynoB7-H3 (cyno B7-H3): 1e-05 s⁻¹ | ka (1/Ms) huB7-H3 [1]: 38000 M⁻¹ s⁻¹ | kd (1/s) huB7-H3 [1]: 0.00025 s⁻¹
B8: Ab12: murine anti-B7-H3 mAbs; mouse hybridoma derived (antibody, V domains shown)
VH: EVQLVESGGGLVKPGGSLKLSCAASGFTFSSYAMSWVRQTPEKRLEWVATISSGTNYTYYPDSVKGRFTISRDNAKNTLYLQMTSLRSEDTAMYYCARQGRYSWIAYWGQGTLVTVSA
VL: DIVLTQSPASLAVSLGQRATISCRASKSVSTSDYSYMHWNQQKPGQPPKLLIYLASNLESGVPARFSGSGSGTDFTLNIHPVEEEDAATYYCQHSRELLTFGAGTKLELK

ka (1/Ms) cynoB7-H3 (cyno B7-H3): 240000 M⁻¹ s⁻¹ | kd (1/s) cynoB7-H3 (cyno B7-H3): 2.9e-05 s⁻¹ | ka (1/Ms) huB7-H3 [1]: 210000 M⁻¹ s⁻¹ | kd (1/s) huB7-H3 [1]: 3.6e-05 s⁻¹
B9: Ab18: the murine monoclonal Ab18 (antibody, V domains shown)
VH: QVQLQQSAAELARPGASVKMSCKASGYSFTSYTIHWVKQRPGQGLEWIGYINPNSRNTDYNQKFKDETTLTADRSSSTAYMQLISLTSEDSAVYYCARYSGSTPYWYFDVWGAGTTVTVSS
VL: QIVLTQSPAILSASPGEKVTMTCRASSSVSYMNWYQQKPGSSPKPWIYATSNLASGVPARFSVSVSGTSHSLTISRVEAEDAATYYCQQWSSNPLTFGAGTKLELK

ka (1/Ms) cynoB7-H3 (cyno B7-H3): 690000 M⁻¹ s⁻¹ | kd (1/s) cynoB7-H3 (cyno B7-H3): 0.003 s⁻¹ | ka (1/Ms) huB7-H3 [1]: 110000 M⁻¹ s⁻¹ | kd (1/s) huB7-H3 [1]: 0.0014 s⁻¹
B10: Ab14: mouse hybridoma derived anti-B7-H3 monoclonal antibodies (mAbs) (antibody, V domains shown)
VH: EVKLVESGGGLVKPGGSLKLSCAASGFTFSSYGMSWVRQTPEKRLEWVATISGGGTNTYYPDSVEGRFTISRDNAKNFLYLQMSSLRSEDTALYYCARHYGSQTMDYWGQGTSVTVSS
VL: DIQMTQSPASLSASVGETVTITCRTSGNIHNYLTWYQQKQGKSPQLLVYNAKTLADGVPSRFSGSGSGTQFSLKINSLQPEDFGSYYCQHFWSIMWTFGGGTKLEIK

ka (1/Ms) cynoB7-H3 (cyno B7-H3): 440000 M⁻¹ s⁻¹ | kd (1/s) cynoB7-H3 (cyno B7-H3): 0.0037 s⁻¹ | ka (1/Ms) huB7-H3 [1]: 330000 M⁻¹ s⁻¹ | kd (1/s) huB7-H3 [1]: 0.0058 s⁻¹
B12: Ab13: mouse hybridoma derived anti-B7-H3 monoclonal antibodies (mAbs) (antibody, V domains shown)
VH: DVQLQESGPDLVKPSQSLSLTCTVTGYSITSGYSWHWIRQFPGNKLEWMGYIHSSGSTNYNPSLKSRISINRDTSKNQFFLQLNSVTTEDTATYYCAGYDDYFEYWGQGTTLTVSS
VL: DIVMTQSQKFMSTSVGDRVSVTCKASQNVGFNVAWYQQKPGQSPKALIYSASYRYSGVPDRFTGSGSGTDFTLTISNVQSEDLAEYFCQQYNSYPFTFGSGTKLEIK
